B1: Serine/threonine-protein kinase LATS1, residues 98 to 141; numbered along this chain, O95835 (parent)
chain: TSEVNPQMLQDLQAAGFDEDMVIQALQKTNNRSIEAAIEFISKM
B2: Histone H1t, residues 44 to 112; numbered along this chain, P22492 (parent)
chain: VSKLITEALSVSQERVGMSLVALKKALAAAGYDVEKNNSRIKLSLKSLVNKGILVQTRGTGASGSFKLS

Variants of: B1
Experiment: abundance fitness (aPCA) (normalised: wild type 0, dead -1); higher = more abundant; growth selection in yeast, the domain comes from the species named
Conditions: Homo sapiens

Abundance fitness, by site and new letter:
Q27: W -0.57 | G -0.292 | P -0.597 | C -0.273 | V -0.043 | K 0.068 | T -0.007 | S -0.071 | R -0.042 | M -0.123 | E -0.041 | H -0.269 | L -0.068 | D -0.151 | A -0.125
S42: A -0.023 | F -0.229 | L -0.248 | R 0.048 | D 0.033 | T 0.103 | W -0.14 | Q 0.127 | H 0.054 | K 0.055 | E 0.136 | C -0.258 | G -0.002 | Y -0.142 | P -0.401 | V -0.219
N30: P -0.529 | F -1.05 | R -0.103 | T -0.533 | Q -0.055 | D -0.093 | M -0.553 | A -0.193 | G 0.045 | K -0.021 | H -0.206 | S -0.107 | L -1.14 | V -1.1 | W -1.07 | E 0.015
E39: P -0.483 | Q -0.166 | H -0.084 | K -0.115 | F -0.884 | M -0.286 | V -0.717 | W -0.728 | S -0.146 | T -0.237 | D -0.113 | R -0.224 | G -0.217 | A -0.103 | C -0.361 | N -0.111
A37: L -0.728 | C -0.376 | R -0.649 | W -1.17 | V -0.453 | G -0.401 | P -0.42 | Q -0.428 | N -0.446 | H -0.621 | T -0.391 | K -1.03 | D -0.43 | Y -0.762 | S -0.441
N31: A -0.416 | T -0.645 | I -0.577 | K -0.699 | M -0.484 | D -0.506 | G -0.155 | E -0.253 | C -0.139 | Q -0.63 | L -0.75 | S 0.049 | R -0.845 | W -0.557 | P -0.459
L26: N -0.377 | A -0.523 | I -0.292 | Q -0.412 | W -0.683 | E -0.263 | F -0.54 | K -0.424 | M -0.559 | G -0.358 | H -0.111 | V -0.571 | P -0.341 | D -0.354
I38: K 0.055 | G -0.169 | H -0.203 | C -0.119 | A -0.048 | V -0.024 | F -0.42 | S -0.113 | W -0.339 | M -0.016 | R 0.003 | E -0.007 | Q -0.021 | P -0.147 | L -0.078
K28: P -0.74 | I -0.445 | D -0.257 | S -0.041 | E 0.034 | V -0.163 | R -0.048 | C -0.129 | H 0.073 | M -0.037 | W -0.444 | L -0.366 | F -0.148 | T -0.259 | Y -0.027 | Q -0.024 | G -0.08 | A 0.12
I41: A -0.282 | F -0.525 | L -0.046 | G -0.282 | N -0.429 | Y -0.434 | H -0.272 | M 0.046 | R -0.361 | K -0.255 | P -0.232 | E -0.165 | D -0.11 | W -0.648 | Q -0.286 | V -0.411 | C -0.225 | S -0.217
F40: E 0.103 | W 0.075 | Q -0.068 | V -0.097 | P -0.157 | K -0.177 | I -0.171 | C -0.016 | S -0.131 | R -0.248 | A -0.018 | D -0.055 | T -0.16 | G -0.163 | M -0.042
A25: Y -0.554 | T -0.741 | W -0.728 | Q -0.697 | V -0.68 | R -0.768 | S -0.295
S33: D -0.4 | T -0.555 | W -1.12 | C -0.467 | E -0.665 | Q -1.02 | H -0.934 | G -0.136 | V -1.29 | F -0.628 | K -0.528 | R -0.907 | L -1.25 | N -0.56 | Y -0.735 | P -0.627 | M -0.96 | A -0.797
I34: A -0.043 | M 0.04 | N -0.123 | L -0.005 | E -0.068 | H -0.077 | Y -0.468 | S -0.189 | Q -0.09 | C -0.02 | V 0.026 | W -0.505 | G -0.266 | T 0.046 | P -0.051 | D -0.257 | F -0.192
M44: Q 0.055 | S -0.04 | L -0.11 | C -0.037 | R -0.057 | E 0.052 | A -0.053 | P -0.148 | V 0.011 | G -0.063 | W -0.232
R32: A 0.089 | D -0.26 | G -0.185 | K 0.238 | C 0.007 | Y -0.222 | V 0.017 | M -0.107 | T -0.004 | P -0.434 | E 0.095 | H 0.045 | W -0.484
T29: F -1.09 | S -0.463 | E -0.529 | C -0.375 | D -0.902 | A -0.646 | G -0.527 | N -0.414 | W -1.09 | I -0.589 | Q -0.563 | R -0.715 | K -0.806 | M -0.919 | L -0.954 | V -0.191 | P -0.524
A36: Y -0.632 | P -0.36 | M -0.316 | N -0.327 | D -0.068 | F -0.77 | R -0.404 | L -0.388 | K -0.21 | G -0.195 | C -0.169 | T -0.258 | S -0.073 | H -0.206 | W -0.825 | Q -0.267
K43: V -0.135 | N -0.038 | D -0.03 | E 0.133 | I -0.435 | Y -0.194 | R -0.027 | H 0.169 | S -0.035 | T -0.004 | P -0.333 | A 0.034 | M -0.071 | L -0.117 | C -0.156 | G -0.036
E35: D 0.005 | L -0.541 | V -0.468 | W -0.473 | F -0.468 | Q -0.141 | R -0.263 | G -0.173 | K -0.169 | P -0.164 | N -0.204 | H -0.151 | M -0.307 | S -0.115 | T -0.158 | C -0.485

Variants of: B2
Experiment: as above
Conditions: Homo sapiens

Abundance fitness of substitutions, site by site:
V1: S -0.512 | A -0.12 | F -0.054 | N -0.557 | M -0.16 | I 0.005 | Y -0.269 | H -0.877 | P 0.071 | K -0.403 | T -0.337 | L -0.536
K3: D -0.144 | C -0.411
S2: V -0.652 | E 0.566 | L -0.398 | M -0.316 | T -0.145 | F -0.383 | K 0.251 | C -0.438 | P -0.456 | N 0.051 | D 0.251 | H -0.474 | A -0.404 | Q -0.344 | Y -0.185 | I -0.234

— the Human Domainome abundance scans (Beltran et al. 2025)
